Data reported in the Human Domainome abundance scans (Beltran et al. 2025).

B1: Ankyrin-2, residues 3571 to 3650; numbered along this chain, Q01484 (parent)
chain: ERLAYIADHLGFSWTELARELDFTEEQIHQIRIENPNSLQDQSHALLKYWLERDGKHATDTNLVECLTKINRMDIVHLME

Variants of: B1
Test: abundance fitness (aPCA) (normalised: wild type 0, dead -1); higher = more abundant; growth selection in yeast, the domain comes from the species named
Conditions: Homo sapiens

Abundance fitness, by site and new letter:
S43: G -0.093 | P -0.32 | R -0.701 | Y -0.508 | A -0.281 | V -0.25 | M -1.13 | L -0.216 | W -0.638
Y49: P -0.513 | G 0.042 | F 0.02 | N -0.056 | V 0.068 | R -0.129 | I -0.009 | A 0.016 | D -0.031 | M 0.059 | S -0.001 | K -0.052 | L 0.017 | W -0.117 | C 0.037
I31: S -0.772 | F 0.023 | D -1 | M -0.177 | L -0.06 | A -0.545 | Q -0.743 | V -0.057 | Y -0.42 | T -0.157 | N -0.242 | W -0.336 | C 0.027 | P -1.19 | H -0.707 | E -0.791 | R -1.04 | G -0.936
L46: P -0.885 | A 0.143 | T -0.127 | Y -0.336 | C 0.184 | W 0.141 | G -0.574 | V -0.075
D41: T -0.013 | G 0.006 | A -0.01 | Y -0.213 | C -0.109 | M -0.019 | N -0.02 | W -0.2 | F -0.168 | E -0.077 | V -0.065 | S -0.005 | R -0.058 | I 0.004 | K -0.034 | Q -0.024 | P -0.243 | L -0.038
I33: Q 0.003 | W -0.073 | K 0.058 | T -0.022 | P -0.912 | R 0.011 | E 0.039 | L -0.087 | F -0.019 | N -0.223 | G -0.047 | D -0.105 | V -0.04 | M 0.011 | Y -0.027 | A -0.034 | H -0.096 | C -0.002
H44: W -0.152 | Y -0.21 | D -0.935 | N 0.051 | T -0.269 | R -0.226 | V 0.085 | P -0.992 | L -0.008 | S 0.016 | G -0.099 | A 0.028 | Q -0.062
E34: P -0.678 | G -0.058 | Y -0.148 | W -0.022 | F -0.25 | V -0.021 | K -0.045 | C -0.413 | L -0.054 | H -0.048 | A -0.048 | T -0.049 | Q 0.085 | N -0.048 | D -0.129 | I -0.042 | S -0.018 | R 0.018
Q40: G -0.146 | A -0.104 | W -0.065 | E 0.051 | I -0.124 | C -0.16 | T -0.033 | S -0.069 | L -0.171 | D 0.117 | R -0.07 | P -0.045
S38: H -0.14 | N -0.065 | D -0.038 | Q -0.103 | E -0.092 | W -0.358 | R -0.096 | L -0.086 | I -0.396 | F -0.155 | V -0.092 | M -0.059 | T -0.039 | P -0.832 | Y -0.474
Q42: P -0.768 | R -0.12 | S 0.073 | C 0.007 | G -0.323 | A -0.068 | I -0.33 | H -0.807 | T -0.538 | V -0.204 | W -0.481
Q30: C -0.044 | T -0.023 | K -0.112 | W -0.209 | H -0.045 | D -0.183 | P -0.825 | L -0.052 | I -0.076 | A -0.082 | N -0.128 | V -0.073
